Results: FireProtDB (doi:10.1016/0141-8130(95)93517-2)

Conditions: Armoracia rusticana, CD, reversible: yes, whole UniProt chain shown
[1] = pH 3.2, 22 °C, GdnHCl, glycine 50 mM
[2] = pH 3.2, 22 °C, Urea, glycine 50 mM
[3] = pH 3.2, 25 °C, GdnHCl, glycine 50 mM
[4] = pH 3.2, 25 °C, Urea, glycine 50 mM
[5] = pH 3.2, 27 °C, GdnHCl, glycine 50 mM
[6] = pH 3.2, 27 °C, Urea, glycine 50 mM
[7] = pH 3.2, 30 °C, GdnHCl, glycine 50 mM
[8] = pH 3.2, 30 °C, Urea, glycine 50 mM
[9] = pH 6.4, 22 °C, GdnHCl, sodium phosphate 2.5 mM
[10] = pH 6.4, 22 °C, Urea, sodium phosphate 2.5 mM
[11] = pH 6.4, 25 °C, GdnHCl, sodium phosphate 2.5 mM
[12] = pH 6.4, 25 °C, Urea, sodium phosphate 2.5 mM
[13] = pH 6.4, 27 °C, GdnHCl, sodium phosphate 2.5 mM
[14] = pH 6.4, 27 °C, Urea, sodium phosphate 2.5 mM
[15] = pH 6.4, 30 °C, GdnHCl, sodium phosphate 2.5 mM
[16] = pH 6.4, 30 °C, Urea, sodium phosphate 2.5 mM
[17] = pH 10, 22 °C, GdnHCl, glycine 50 mM
[18] = pH 10, 22 °C, Urea, glycine 50 mM
[19] = pH 10, 25 °C, GdnHCl, glycine 50 mM
[20] = pH 10, 25 °C, Urea, glycine 50 mM
[21] = pH 10, 27 °C, GdnHCl, glycine 50 mM
[22] = pH 10, 27 °C, Urea, glycine 50 mM
[23] = pH 10, 30 °C, GdnHCl, glycine 50 mM
[24] = pH 10, 30 °C, Urea, glycine 50 mM

B1: Peroxidase C2 wild type, P17179 (protein)
chain: MHSSSSLIKLGFLLLLLNVSLSHAQLSPSFYDKTCPQVFDIATNTIKTALRSDPRIAASILRLHFHDCFVNGCDASILLDNTTSFRTEKDAFGNARSARGFDVIDTMKAAVEKACPKTVSCADLLAIAAQKSVVLAGGPSWKVPSGRRDSLRGFMDLANDNLPGPSSTLQVLKDKFRNVGLDRPSDLVALSGGHTFGKNQCQFIMDRLYNFSNSGKPDPTLDKSYLSTLRKQCPRNGNLSVLVDFDLRTPTIFDNKYYVNLKENKGLIQSDQELFSSPDASDTIPLVRAYADGQGKFFDAFVEAMIRMGNLSPSTGKQGEIRLNCRVVNSKPKIMDVVDTNDFASSI
denaturant m value [1]: 2.86 kcal/mol/M
unfolding free energy [1]: 6.75 kcal/mol
denaturant m value [2]: 1.23 kcal/mol/M
unfolding free energy [2]: 6.42 kcal/mol
denaturant m value [3]: 2.94 kcal/mol/M
unfolding free energy [3]: 6.25 kcal/mol
denaturant m value [4]: 1.26 kcal/mol/M
unfolding free energy [4]: 5.94 kcal/mol
denaturant m value [5]: 2.99 kcal/mol/M
unfolding free energy [5]: 5.68 kcal/mol
denaturant m value [6]: 1.31 kcal/mol/M
unfolding free energy [6]: 5.63 kcal/mol
denaturant m value [7]: 3.2 kcal/mol/M
unfolding free energy [7]: 4.98 kcal/mol
denaturant m value [8]: 1.37 kcal/mol/M
unfolding free energy [8]: 5.18 kcal/mol
denaturant m value [9]: 4.75 kcal/mol/M
unfolding free energy [9]: 6.68 kcal/mol
denaturant m value [10]: 2.02 kcal/mol/M
unfolding free energy [10]: 6.45 kcal/mol
denaturant m value [11]: 4.9 kcal/mol/M
unfolding free energy [11]: 6.38 kcal/mol
denaturant m value [12]: 2.06 kcal/mol/M
unfolding free energy [12]: 5.94 kcal/mol
denaturant m value [13]: 5.08 kcal/mol/M
unfolding free energy [13]: 6.22 kcal/mol
denaturant m value [14]: 2.11 kcal/mol/M
unfolding free energy [14]: 5.87 kcal/mol
denaturant m value [15]: 5.16 kcal/mol/M
unfolding free energy [15]: 5.62 kcal/mol
denaturant m value [16]: 2.18 kcal/mol/M
unfolding free energy [16]: 5.69 kcal/mol
denaturant m value [17]: 2.85 kcal/mol/M
unfolding free energy [17]: 6.7 kcal/mol
denaturant m value [18]: 1.28 kcal/mol/M
unfolding free energy [18]: 6.71 kcal/mol
denaturant m value [19]: 2.99 kcal/mol/M
unfolding free energy [19]: 6.4 kcal/mol
denaturant m value [20]: 1.3 kcal/mol/M
unfolding free energy [20]: 6.36 kcal/mol
denaturant m value [21]: 3.11 kcal/mol/M
unfolding free energy [21]: 5.87 kcal/mol
denaturant m value [22]: 1.37 kcal/mol/M
unfolding free energy [22]: 6.04 kcal/mol
denaturant m value [23]: 3.17 kcal/mol/M
unfolding free energy [23]: 5.23 kcal/mol
denaturant m value [24]: 1.4 kcal/mol/M
unfolding free energy [24]: 5.54 kcal/mol
